Data set [1] deals with the molecule itself. The experiment in a line: dynamic light scattering; self-association as LCST-type phase separation; prf.GLFG_(52×12) diluted into 20 mM NaPi pH 6.8 with 75-1200 mM NaCl, temperature raised by 1 °C per min from 2 to 40 °C; van't Hoff analysis (Formula Set 1).
Data set [2] deals with the molecule itself. The experiment in a line: co-sedimentation; centrifugation assay of phase separation: FG domain diluted into 20 mM NaPi pH 6.8, 5 mM DTT, NaCl, concentration and temperature as in the figures; 21,130 × g, 30 min; pellet (FG phase) and supernatant by SDS-PAGE/Coomassie; saturation concentration = concentration left in the supernatant (Formula Set 2).

B1: prf.GLFG_(52×12) (domain or fragment)
chain: GGLFGGNTQPATGGLFGGNTQPATGGLFGGNTQPATGGLFGGNTQPATGGLFGGNTQPATGGLFGGNTQPATGGLFGGNTQPATGGLFGGNTQPATGGLFGGNTQPATGGLFGGNTQPATGGLFGGNTQPATGGLFGGNTQPATGGLFGGNTQPATGGLFGGNTQPATGGLFGGNTQPATGGLFGGNTQPATGGLFGGNTQPATGGLFGGNTQPATGGLFGGNTQPATGGLFGGNTQPATGGLFGGNTQPATGGLFGGNTQPATGGLFGGNTQPATGGLFGGNTQPATGGLFGGNTQPATGGLFGGNTQPATGGLFGGNTQPATGGLFGGNTQPATGGLFGGNTQPATGGLFGGNTQPATGGLFGGNTQPATGGLFGGNTQPATGGLFGGNTQPATGGLFGGNTQPATGGLFGGNTQPATGGLFGGNTQPATGGLFGGNTQPATGGLFGGNTQPATGGLFGGNTQPATGGLFGGNTQPATGGLFGGNTQPATGGLFGGNTQPATGGLFGGNTQPATGGLFGGNTQPATGGLFGGNTQPATGGLFGGNTQPATGGLFGGNTQPATGGLFGGNTQPATGGLFGGNTQPATGGLFGGNTQPATGGLFGGNTQPATGGLFGGNTQPAT
notes: Engineered after the MacNup98A FG domain, GLEBS deleted; also called perfectly repeated FG domain; N = 52; source: E. coli NEB Express, extracted from inclusion bodies, purified (Ni chromatography, SUMO protease cleavage, lyophilized); not shown: histidine tag with a SUMO cleavage site, N-terminal, cleaved
B1: the “dH of phase separation when [NaCl] = 0 (van't Hoff)” value in data set [1] was found to be 24.4 kcal/mol.

B2: prf.GLFG_(26×12) (domain or fragment)
chain: GGLFGGNTQPATGGLFGGNTQPATGGLFGGNTQPATGGLFGGNTQPATGGLFGGNTQPATGGLFGGNTQPATGGLFGGNTQPATGGLFGGNTQPATGGLFGGNTQPATGGLFGGNTQPATGGLFGGNTQPATGGLFGGNTQPATGGLFGGNTQPATGGLFGGNTQPATGGLFGGNTQPATGGLFGGNTQPATGGLFGGNTQPATGGLFGGNTQPATGGLFGGNTQPATGGLFGGNTQPATGGLFGGNTQPATGGLFGGNTQPATGGLFGGNTQPATGGLFGGNTQPATGGLFGGNTQPATGGLFGGNTQPAT
notes: also called N = 26; 26× repeats; source: E. coli NEB Express, soluble fraction, purified (Ni(II) chelate column, on-column bdSENP1 cleavage, lyophilized); not shown: histidine tag with a SUMO cleavage site, N-terminal, cleaved
Take B2: the binding result in data set [2] is given as “binds”.

B3: prf.GLFG_(37×12) (domain or fragment)
chain: GGLFGGNTQPATGGLFGGNTQPATGGLFGGNTQPATGGLFGGNTQPATGGLFGGNTQPATGGLFGGNTQPATGGLFGGNTQPATGGLFGGNTQPATGGLFGGNTQPATGGLFGGNTQPATGGLFGGNTQPATGGLFGGNTQPATGGLFGGNTQPATGGLFGGNTQPATGGLFGGNTQPATGGLFGGNTQPATGGLFGGNTQPATGGLFGGNTQPATGGLFGGNTQPATGGLFGGNTQPATGGLFGGNTQPATGGLFGGNTQPATGGLFGGNTQPATGGLFGGNTQPATGGLFGGNTQPATGGLFGGNTQPATGGLFGGNTQPATGGLFGGNTQPATGGLFGGNTQPATGGLFGGNTQPATGGLFGGNTQPATGGLFGGNTQPATGGLFGGNTQPATGGLFGGNTQPATGGLFGGNTQPATGGLFGGNTQPATGGLFGGNTQPAT
notes: also called N = 37; 37× repeats; not shown: histidine tag with a SUMO cleavage site, N-terminal, cleaved
On to B3, for which the binding result in data set [2] is listed as “binds”.

B4: prf.GLFG_(70×12) (domain or fragment)
chain: GGLFGGNTQPATGGLFGGNTQPATGGLFGGNTQPATGGLFGGNTQPATGGLFGGNTQPATGGLFGGNTQPATGGLFGGNTQPATGGLFGGNTQPATGGLFGGNTQPATGGLFGGNTQPATGGLFGGNTQPATGGLFGGNTQPATGGLFGGNTQPATGGLFGGNTQPATGGLFGGNTQPATGGLFGGNTQPATGGLFGGNTQPATGGLFGGNTQPATGGLFGGNTQPATGGLFGGNTQPATGGLFGGNTQPATGGLFGGNTQPATGGLFGGNTQPATGGLFGGNTQPATGGLFGGNTQPATGGLFGGNTQPATGGLFGGNTQPATGGLFGGNTQPATGGLFGGNTQPATGGLFGGNTQPATGGLFGGNTQPATGGLFGGNTQPATGGLFGGNTQPATGGLFGGNTQPATGGLFGGNTQPATGGLFGGNTQPATGGLFGGNTQPATGGLFGGNTQPATGGLFGGNTQPATGGLFGGNTQPATGGLFGGNTQPATGGLFGGNTQPATGGLFGGNTQPATGGLFGGNTQPATGGLFGGNTQPATGGLFGGNTQPATGGLFGGNTQPATGGLFGGNTQPATGGLFGGNTQPATGGLFGGNTQPATGGLFGGNTQPATGGLFGGNTQPATGGLFGGNTQPATGGLFGGNTQPATGGLFGGNTQPATGGLFGGNTQPATGGLFGGNTQPATGGLFGGNTQPATGGLFGGNTQPATGGLFGGNTQPATGGLFGGNTQPATGGLFGGNTQPATGGLFGGNTQPATGGLFGGNTQPATGGLFGGNTQPATGGLFGGNTQPATGGLFGGNTQPATGGLFGGNTQPATGGLFGGNTQPATGGLFGGNTQPAT
notes: also called N = 70; not shown: histidine tag with a SUMO cleavage site, N-terminal, cleaved
Take B4: the binding result in data set [2] was “binds”.

B5: prf.GLFG_(44×12) (domain or fragment)
chain: GGLFGGNTQPATGGLFGGNTQPATGGLFGGNTQPATGGLFGGNTQPATGGLFGGNTQPATGGLFGGNTQPATGGLFGGNTQPATGGLFGGNTQPATGGLFGGNTQPATGGLFGGNTQPATGGLFGGNTQPATGGLFGGNTQPATGGLFGGNTQPATGGLFGGNTQPATGGLFGGNTQPATGGLFGGNTQPATGGLFGGNTQPATGGLFGGNTQPATGGLFGGNTQPATGGLFGGNTQPATGGLFGGNTQPATGGLFGGNTQPATGGLFGGNTQPATGGLFGGNTQPATGGLFGGNTQPATGGLFGGNTQPATGGLFGGNTQPATGGLFGGNTQPATGGLFGGNTQPATGGLFGGNTQPATGGLFGGNTQPATGGLFGGNTQPATGGLFGGNTQPATGGLFGGNTQPATGGLFGGNTQPATGGLFGGNTQPATGGLFGGNTQPATGGLFGGNTQPATGGLFGGNTQPATGGLFGGNTQPATGGLFGGNTQPATGGLFGGNTQPATGGLFGGNTQPATGGLFGGNTQPAT
notes: also called N = 44; not shown: histidine tag with a SUMO cleavage site, N-terminal, cleaved
Regarding B5, in data set [2], the binding result is recorded as “binds”.

Values taken from article PMC9579204, “A simple thermodynamic description of phase separation of Nup98 FG domains” (Nature Communications, 2022).
